Data published in the Human Domainome abundance scans (Beltran et al. 2025).
± gives the uncertainty stated by the source.

B1: Tripartite motif-containing protein 49C, residues 87 to 133; numbered along this chain, P0CI26 (parent)
chain: SSEEQMCGTHRETKKIFCEVDRSLLCLLCSSSQEHRYHRHRPIEWAA

Variants of: B1
Experiment: abundance fitness (aPCA) (normalised: wild type 0, dead -1); higher = more abundant; growth selection in yeast, the domain comes from the species named
Conditions: Homo sapiens

SSEEQMCGTHRETKKIFCEVDRSLLCLLLSSSQEHRYHRHRPIEWAA [C29L] and SSEEQMCGTHRETKKIFCEVDRSLLCLLTSSSQEHRYHRHRPIEWAA [C29T] are within error of each other in abundance fitness: -0.977 ± 0.17 for the first, -0.861 ± 0.17 for the second.

SSEEGMCGTHRETKKIFCEVDRSLLCLLCSSSQEHRYHRHRPIEWAA [Q5G] and SSEETMCGTHRETKKIFCEVDRSLLCLLCSSSQEHRYHRHRPIEWAA [Q5T] are within error of each other in abundance fitness: -0.244 ± 0.081 for the first, -0.345 ± 0.12 for the second.

First: SSEEQMCGTHRETPKIFCEVDRSLLCLLCSSSQEHRYHRHRPIEWAA [K14P]
Second: SSEEQMCGTHRETKKIFCEVDRSLLCLLCSSSQEHRYSRHRPIEWAA [H38S]
The abundance fitness of the first is higher: -0.431 ± 0.16 for the first, -0.691 ± 0.097 for the second.

Going from SSEEQMCGTHRETKKIFCEVDRSLLCLLCSSSQEHRYCRHRPIEWAA [H38C] to SSEEQMCGTHRETKKIFCEVDRSLLCLLCSSSQEHRYFRHRPIEWAA [H38F], the abundance fitness rises from -0.836 ± 0.24 to -0.271 ± 0.2.

First: SSEEQMCGTHRETKKIFCEVDRSLLCLLCSSSQEHRYTRHRPIEWAA [H38T]
Second: SSEEQMCGTDRETKKIFCEVDRSLLCLLCSSSQEHRYHRHRPIEWAA [H10D]
The abundance fitness of the first is lower: -0.599 ± 0.14 for the first, -0.303 ± 0.15 for the second.

Compared with SSEEQMCGTHRETKKIFCEVDRSLLCLLCSSSQEHRYHRHRIIEWAA [P42I], SSEEQMCGTHRETKKIFCEVDRSLLCLLCSSSQEHRYHRHRQIEWAA [P42Q] is higher in abundance fitness: -0.377 ± 0.09 for the first, -0.081 ± 0.1 for the second.

First: SSEEQMCGTHRETKKIFCEVDRSLLCLLCSSSQEHRYHRHRHIEWAA [P42H]
Second: SSEEQMCGTHRETKKIFCEVDRSLLLLLCSSSQEHRYHRHRPIEWAA [C26L]
The abundance fitness of the first is higher: -0.264 ± 0.082 for the first, -0.787 ± 0.15 for the second.

First: SSEEQMCGTHRETKKIFCEVDRSLLFLLCSSSQEHRYHRHRPIEWAA [C26F]
Second: SSEEQMCGTHRETKKIFCEVDRSLLDLLCSSSQEHRYHRHRPIEWAA [C26D]
The abundance fitness of the first is lower: -0.901 ± 0.26 for the first, -0.118 ± 0.29 for the second.

SSEEQMCGTHRETKKIFCEVDRSLLCLLCSSSQEHRYHRHRPIEDAA [W45D] and SSEEQMCGTHRETKKIFCEVDRSLLCLLCSSSQEHRYHRHRPIEKAA [W45K] are within error of each other in abundance fitness: 0.479 ± 0.087 for the first, 0.518 ± 0.12 for the second.

SSEEQMCGTHRETKKIFCEVDRSLLCLLCSSSQEHRYHRHRPIECAA [W45C] and SSEEQMCGTHRETKKIFCEVDRSLLCLLCSSSQEHRYHRHRPIEGAA [W45G] are within error of each other in abundance fitness: 0.18 ± 0.12 for the first, 0.236 ± 0.078 for the second.

First: SSEEQMCGTHRETKKIFCEVDRSLLCLLCSSSQEHRYHRHRPIELAA [W45L]
Second: SSEEQCCGTHRETKKIFCEVDRSLLCLLCSSSQEHRYHRHRPIEWAA [M6C]
The abundance fitness of the first is higher: 0.122 ± 0.078 for the first, -0.568 ± 0.17 for the second.

SSEEQICGTHRETKKIFCEVDRSLLCLLCSSSQEHRYHRHRPIEWAA [M6I] and SSEEQKCGTHRETKKIFCEVDRSLLCLLCSSSQEHRYHRHRPIEWAA [M6K] are within error of each other in abundance fitness: -0.855 ± 0.16 for the first, -0.581 ± 0.14 for the second.

First: SSEEQNCGTHRETKKIFCEVDRSLLCLLCSSSQEHRYHRHRPIEWAA [M6N]
Second: SSEEQVCGTHRETKKIFCEVDRSLLCLLCSSSQEHRYHRHRPIEWAA [M6V]
The abundance fitness of the first is lower: -0.958 ± 0.3 for the first, -0.21 ± 0.089 for the second.

SSEEQMCGTHRETKKIFCEVDRSLLCLLCSSSQEHRYHRHKPIEWAA [R41K] and SSEEQMCGTHRETKKIFCEVDRSLLCLLCSSSQEHRYHRHAPIEWAA [R41A] are within error of each other in abundance fitness: -0.402 ± 0.47 for the first, -0.084 ± 0.12 for the second.

SSEEQMCGTHRETKKIFCEVDRSLLCLLCSSSQEHRYHRHFPIEWAA [R41F] and SSEEQMCGTHRETKKIFCEVDRSLLCLLCSSSQEHRYHRHCPIEWAA [R41C] are within error of each other in abundance fitness: -0.29 ± 0.19 for the first, -0.609 ± 0.17 for the second.

Going from SSEEQMCGTHRETKKIFCEVDRSLLCLLCSSSQEHRYHRHQPIEWAA [R41Q] to SSEEQMCGTHRETKKIFCIVDRSLLCLLCSSSQEHRYHRHRPIEWAA [E19I], the abundance fitness falls from 0.09 ± 0.15 to -0.5 ± 0.21.

Compared with SSEEQMCGTHRETKKIFCPVDRSLLCLLCSSSQEHRYHRHRPIEWAA [E19P], SSEEQMCGTHRETKKIFTEVDRSLLCLLCSSSQEHRYHRHRPIEWAA [C18T] is lower in abundance fitness: -0.026 ± 0.13 for the first, -0.471 ± 0.11 for the second.

Compared with SSEEQMCGTHRETKKIFDEVDRSLLCLLCSSSQEHRYHRHRPIEWAA [C18D], SSEEQMCGTHRETKKIFLEVDRSLLCLLCSSSQEHRYHRHRPIEWAA [C18L] is lower in abundance fitness: -0.669 ± 0.21 for the first, -1.09 ± 0.17 for the second.

SSEEQMCGTHRETKKIFCEVDRSLLCLLCSSSQRHRYHRHRPIEWAA [E34R] and SSEEQMCGTHRETKKIFCEVDRSLLCLLCSSSQEHPYHRHRPIEWAA [R36P] are within error of each other in abundance fitness: -0.557 ± 0.091 for the first, -0.535 ± 0.16 for the second.

Compared with SSEEQMCGPHRETKKIFCEVDRSLLCLLCSSSQEHRYHRHRPIEWAA [T9P], SSEEQMCGVHRETKKIFCEVDRSLLCLLCSSSQEHRYHRHRPIEWAA [T9V] is higher in abundance fitness: -0.503 ± 0.1 for the first, 0.047 ± 0.077 for the second.

First: SSEEQMCGGHRETKKIFCEVDRSLLCLLCSSSQEHRYHRHRPIEWAA [T9G]
Second: SSEEQMCGAHRETKKIFCEVDRSLLCLLCSSSQEHRYHRHRPIEWAA [T9A]
The abundance fitness of the first is lower: -0.556 ± 0.091 for the first, -0.235 ± 0.091 for the second.

First: SSEEQMCGWHRETKKIFCEVDRSLLCLLCSSSQEHRYHRHRPIEWAA [T9W]
Second: SSEEQMCGTHRETKKIFCEVDRSLLCLLCSSSQERRYHRHRPIEWAA [H35R]
The abundance fitness of the first is higher: -0.339 ± 0.12 for the first, -0.799 ± 0.099 for the second.

First: SSEEQMCGTHRETKKIFCEVDRSLLCLLCSSSQELRYHRHRPIEWAA [H35L]
Second: SSEEQMCGTHRETKKIFCEVDRSLLCLLCSSSQEGRYHRHRPIEWAA [H35G]
The abundance fitness of the first is lower: -1.08 ± 0.14 for the first, -0.769 ± 0.094 for the second.

SSEEQMCGTHRETKKIFCEVDRSLMCLLCSSSQEHRYHRHRPIEWAA [L25M] and SSEEQMSGTHRETKKIFCEVDRSLLCLLCSSSQEHRYHRHRPIEWAA [C7S] are within error of each other in abundance fitness: -0.5 ± 0.2 for the first, -0.636 ± 0.091 for the second.

SSEEQMKGTHRETKKIFCEVDRSLLCLLCSSSQEHRYHRHRPIEWAA [C7K] and SSEEQMFGTHRETKKIFCEVDRSLLCLLCSSSQEHRYHRHRPIEWAA [C7F] are within error of each other in abundance fitness: -1.08 ± 0.27 for the first, -0.957 ± 0.12 for the second.

Going from SSEEQMCGTHRETKKIFCEVFRSLLCLLCSSSQEHRYHRHRPIEWAA [D21F] to SSEEQMCGTHRETKKIFCEVCRSLLCLLCSSSQEHRYHRHRPIEWAA [D21C], the abundance fitness rises from -0.562 ± 0.18 to 0.149 ± 0.12.

SSEEQMCGTHRETKKIFCEVDRSLLCLLCSSSQEHRYHRCRPIEWAA [H40C] and SSEEQMCGTHRETKKAFCEVDRSLLCLLCSSSQEHRYHRHRPIEWAA [I16A] are within error of each other in abundance fitness: -0.623 ± 0.15 for the first, -0.703 ± 0.12 for the second.

With SSEEQMCGTHRETKKTFCEVDRSLLCLLCSSSQEHRYHRHRPIEWAA [I16T] the abundance fitness was -0.399 ± 0.13.
